Experimental data: publication PMC6486907

How the values were obtained:
[1] = target: Sau-TBD (large fragment of Staphylococcus aureus Pol I with the thioredoxin-binding domain of bacteriophage T7 DNA polymerase inserted) (Staphylococcus aureus | bacteriophage T7)
[2] = target: Sau-TBD (large fragment of Staphylococcus aureus Pol I with the thioredoxin-binding domain of bacteriophage T7 DNA polymerase inserted) (Staphylococcus aureus | bacteriophage T7); remark: listed apart in the source

- DNA polymerase activity of Sau-TBD on primed M13mp18 DNA with 1.5 uM thioredoxin (1316 units/mg protein without thioredoxin) (units/mg protein) [1]: 2860
- average primer extension length of Sau-TBD with thioredoxin, as told in the text (differs from Table 3) [2]: 74.2 nt
- microscopic processivity (PI) of Sau-TBD with thioredoxin, as told in the text (differs from Table 3) [2]: 0.986
Substance: thioredoxin from E. coli (TrxA) (from UniProt P0AA25 2-109) (natural protein)
